Results on one protein are retold here after publication doi:10.1101/2020.07.06.189977 (bioRxiv, 2020).

This data set deals with the molecule itself. Nature of the data set: crystal structure.

B1: ERα-L372S/L536S double-mutant ligand-binding domain (LBD, amino acid residues 298–554) (domain or fragment, UniProt P03372 298-554, looked up)
chain: IKRSKKNSLALSLTADQMVSALLDAEPPILYSEYDPTRPFSEASMMGLLTNLADRELVHMINWAKRVPGFVDLTSHDQVHLLECAWLEILMIGLVWRSMEHPGKLLFAPNLLLDRNQGKCVEGMVEIFDMLLATSSRFRMMNLQGEEFVCLKSIILLNSGVYTFLSSTLKSLEEKDHIHRVLDKITDTLIHLMAKAGLTLQQQHQRLAQLLLILSHIRHMSNKGMEHLYSMKCKNVVPSYDLLLEMLDAHRLHAPTS
Take B1: the binding result is on record as “binds”.
